Reference: patent US20240255503A1 (UNIVERSITY OF NEWCASTLE UPON TYNE, published 2024)
Residue numbers refer to the chain shown, from its start. Names may count otherwise. Each block holds one binder with its values, some of them ahead of it.

Experiments:
[1] = target: C3b:FH1-4 complex (chip-bound C3b with co-injected WT FH1-4)
[2] = target: T1, C3b:FH1-4 complex (chip-bound C3b with co-injected WT FH1-4) (human, UniProt P01024 23-667; P01024 749-1663; P08603 19-263); experiment: SPR TMC building, 62.5 nM FI with 125 nM WT FH1-4 over amine-coupled C3b
T1 construct: Composite target for the FI variants in the trimolecular complex (TMC) building assay, made of m1 and m3; FI and FH1-4 were injected together over C3b; also called FH/C3b; FH-1-4/C3b

[3] = target: T2, L1109V mutant C3b, immobilised on a CM5 sensor chip (human, UniProt P01024 23-667; P01024 749-1663); experiment: SPR affinity estimate, FL-FH over thioester-coupled mutant and WT C3b
T2 construct: C3 purified from the serum of a homozygous aHUS patient and converted to C3b on the chip (898 RU, thioester coupled); also called L1109V C3b; variant C3b
Description: (§1) Dissociation constants (KD) are given under the graphs showing each concentration vs RU curve labelled with the appropriate variant.

[4] = target: T3, Human C3b (wild type), immobilised on a CM5 sensor chip (human, UniProt P01024 23-667; P01024 749-1663); experiment: SPR affinity estimate (not steady state), FL-FH 250-7.8 nM over thioester-coupled WT C3b
T3 construct: also called WT C3b; WT C3
Description: as §1

[5] = target: T2, L1109V mutant C3b, immobilised on a CM5 …; experiment: SPR affinity fit (BIAevaluation), WT full length FH over thiol-coupled L1109V C3b (898 RU) on a CM5 chip, PBST; printed under both panels [Continued]
Description: as §1

[6] = target: T3, Human C3b (wild type), immobilised on a …; experiment: SPR steady-state affinity fit (BIAevaluation S200), WT FH1-4 over thiol-coupled WT C3b (899 RU) on a CM5 chip, PBST [Continued]
[7] = target: T3, Human C3b (wild type), immobilised on a …; experiment: SPR steady-state affinity fit (BIAevaluation S200), WT FH1-4 over C3b immobilised on a CM5 chip
Description: Data was collected at 40 Hz and there was a 120s stabilisation period between each sample being injected.

[8] = target: T3, Human C3b (wild type), immobilised on a …; experiment: SPR steady-state affinity, FH1-4 20-0.156 µM over thioester-coupled WT C3b (899 RU)
[9] = target: T2, L1109V mutant C3b, immobilised on a CM5 …; experiment: SPR steady-state affinity, FH1-4 20-0.156 µM over thioester-coupled L1109V C3b (898 RU)
[10] = target: T2, L1109V mutant C3b, immobilised on a CM5 …; experiment: SPR steady-state affinity, FH19-20 20-0.156 µM over thioester-coupled L1109V C3b (898 RU); fitted KD from the same SPR run on L1109V C3b that the text calls a lack of binding
[11] = target: T3, Human C3b (wild type), immobilised on a …; experiment: SPR steady-state affinity, FH19-20 20-0.156 µM over thioester-coupled WT C3b (899 RU); WT C3b on the chip, not the L1109V mutant

T3 sequence (P01024 23-667 limits assumed, chain 1 of 2): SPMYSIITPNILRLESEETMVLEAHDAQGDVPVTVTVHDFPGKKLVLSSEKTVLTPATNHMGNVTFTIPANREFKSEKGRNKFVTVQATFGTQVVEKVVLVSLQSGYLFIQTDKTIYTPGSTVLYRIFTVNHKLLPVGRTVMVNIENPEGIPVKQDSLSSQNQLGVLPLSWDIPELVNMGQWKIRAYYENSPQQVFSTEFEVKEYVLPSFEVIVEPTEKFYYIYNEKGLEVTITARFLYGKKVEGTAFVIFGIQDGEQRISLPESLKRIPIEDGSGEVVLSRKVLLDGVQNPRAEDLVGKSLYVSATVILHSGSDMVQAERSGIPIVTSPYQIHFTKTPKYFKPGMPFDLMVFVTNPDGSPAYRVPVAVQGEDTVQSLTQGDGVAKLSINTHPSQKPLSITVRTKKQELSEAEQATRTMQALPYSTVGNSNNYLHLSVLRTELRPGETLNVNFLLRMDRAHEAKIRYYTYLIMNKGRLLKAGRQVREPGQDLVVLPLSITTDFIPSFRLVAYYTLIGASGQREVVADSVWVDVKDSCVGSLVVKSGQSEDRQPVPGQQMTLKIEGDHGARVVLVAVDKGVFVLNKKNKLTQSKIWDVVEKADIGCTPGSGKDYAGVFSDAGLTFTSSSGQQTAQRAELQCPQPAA
T3 sequence (P01024 749-1663 limits assumed, chain 2 of 2): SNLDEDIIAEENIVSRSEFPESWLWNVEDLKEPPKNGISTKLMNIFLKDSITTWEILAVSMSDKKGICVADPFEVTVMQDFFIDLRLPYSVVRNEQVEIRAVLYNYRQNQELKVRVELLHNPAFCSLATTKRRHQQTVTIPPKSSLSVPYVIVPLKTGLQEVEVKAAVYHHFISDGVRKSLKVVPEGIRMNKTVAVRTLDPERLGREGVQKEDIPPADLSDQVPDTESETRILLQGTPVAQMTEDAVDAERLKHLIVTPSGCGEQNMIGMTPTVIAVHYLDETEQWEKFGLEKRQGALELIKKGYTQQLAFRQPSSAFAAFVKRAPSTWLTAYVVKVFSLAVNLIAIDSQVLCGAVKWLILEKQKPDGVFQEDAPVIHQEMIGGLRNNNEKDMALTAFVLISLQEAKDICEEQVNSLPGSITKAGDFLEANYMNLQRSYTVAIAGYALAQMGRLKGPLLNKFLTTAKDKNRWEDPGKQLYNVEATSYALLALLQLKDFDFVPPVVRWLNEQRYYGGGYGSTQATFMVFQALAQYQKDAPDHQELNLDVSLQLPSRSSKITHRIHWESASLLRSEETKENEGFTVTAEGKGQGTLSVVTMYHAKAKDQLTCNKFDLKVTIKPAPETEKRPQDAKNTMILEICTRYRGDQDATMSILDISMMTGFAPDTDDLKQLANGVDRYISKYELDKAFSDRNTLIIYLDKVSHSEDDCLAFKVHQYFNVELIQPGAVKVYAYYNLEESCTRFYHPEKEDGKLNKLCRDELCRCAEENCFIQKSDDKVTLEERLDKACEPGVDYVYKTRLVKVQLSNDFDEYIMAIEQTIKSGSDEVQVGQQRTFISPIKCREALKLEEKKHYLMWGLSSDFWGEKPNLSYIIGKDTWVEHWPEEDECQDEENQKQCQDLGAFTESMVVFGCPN
T2 sequence (P01024 23-667 limits assumed, chain 1 of 2): as the sequence (P01024 23-667 limits assumed, chain 1 of 2) above
T2 sequence (P01024 749-1663 L1109V limits assumed, chain 2 of 2): as the sequence (P01024 749-1663 limits assumed, chain 2 of 2) above, with L361V counted along it
T1 sequence (P01024 23-667 limits assumed, chain 1 of 2): as the sequence (P01024 23-667 limits assumed, chain 1 of 2) above
T1 sequence (P01024 749-1663 limits assumed, chain 2 of 2): as the sequence (P01024 749-1663 limits assumed, chain 2 of 2) above

B1: Inactive (S525A) Complement Factor I (protein)
chain: KVTYTSQEDLVEKKCLAKKYTHLSCDKVFCQPWQRCIEGTCVCKLPYQCPKNGTAVCATNRRSFPTYCQQKSLECLHPGTKFLNNGTCTAEGKFSVSLKHGNTDSEGIVEVKLVDQDKTMFICKSSWSMREANVACLDLGFQQGADTQRRFKLSDLSINSTECLHVHCRGLETSLAECTFTKRRTMGYQDFADVVCYTQKADSPMDDFFQCVNGKYISQMKACDGINDCGDQSDELCCKACQGKGFHCKSGVCIPSQYQCNGEVDCITGEDEVGCAGFASVTQEETEILTADMDAERRRIKSLLPKLSCGVKNRMHIRRKRIVGGKRAQLGDLPWQVAIKDASGITCGGIYIGGCWILTAAHCLRASKTHRYQIWTTVVDWIHPDLKRIVIEYVDRIIFHENYNAGTYQNDIALIEMKKDGNKKDCELPRSIPACVPWSPYLFQPNDTCIVSGWGREKDNERVFSLQWGEVKLISNCSKFYGNRFYEKEMECAGTYDGSIDACKGDAGGPLVCMDANNVTYVWGVVSWGENCGKPEFPGVYTKVANYFDWISYHVGRPFISQYNV
- cleavage of chip-bound C3b (SPR, convertase rebuilt before and after) [1]: Inactive (S525A) FI therefore demonstrated binding of the components of the AP regulatory TMC without cleaving the chip surface

B2: Complement Factor I with only an H380R mutation (protein)
chain: B1 chain with H362R, A507S
- cleavage of chip-bound C3b (SPR) [1]: H380R FI appears to bind to WT FH1-4/C3b without cleaving the C3b coupled chip surface

B6: Complement Factor I, wild type (active) (protein)
chain 1: KVTYTSQEDLVEKKCLAKKYTHLSCDKVFCQPWQRCIEGTCVCKLPYQCPKNGTAVCATNRRSFPTYCQQKSLECLHPGTKFLNNGTCTAEGKFSVSLKHGNTDSEGIVEVKLVDQDKTMFICKSSWSMREANVACLDLGFQQGADTQRRFKLSDLSINSTECLHVHCRGLETSLAECTFTKRRTMGYQDFADVVCYTQKADSPMDDFFQCVNGKYISQMKACDGINDCGDQSDELCCKACQGKGFHCKSGVCIPSQYQCNGEVDCITGEDEVGCAGFASVAQEETEILTADMDAERRRIKSLLPKLSCGVKNRMHI
chain 2: IVGGKRAQLGDLPWQVAIKDASGITCGGIYIGGCWILTAAHCLRASKTHRYQIWTTVVDWIHPDLKRIVIEYVDRIIFHENYNAGTYQNDIALIEMKKDGNKKDCELPRSIPACVPWSPYLFQPNDTCIVSGWGREKDNERVFSLQWGEVKLISNCSKFYGNRFYEKEMECAGTYDGSIDACKGDSGGPLVCMDANNVTYVWGVVSWGENCGKPEFPGVYTKVANYFDWISYHVGRPFISQYNV
- cleavage of chip-bound C3b to iC3b (SPR, 25° C.) [1]: the chip was shown to be degraded almost instantaneously after formation of a small amount of TMC (˜3 RU) and conversion of C3b to iC3b

Other lines, results leading:

- increase in response (RU) [2]: ~2 RU
B3: Y459S inactive (S525A) Complement Factor I (enzyme)
chain: B1 chain with Y441S
notes: also called Y459S FI

- fold change of KD, mutant C3b against WT C3b [3]: 3.6 fold
- Kd [4]: 280 nM
- Kd [5]: 1010 nM
B4: Full Length Human Complement Factor H (FH) (other)
chain: EDCNELPPRRNTEILTGSWSDQTYPEGTQAIYKCRPGYRSLGNVIMVCRKGEWVALNPLRKCQKRPCGHPGDTPFGTFTLTGGNVFEYGVKAVYTCNEGYQLLGEINYRECDTDGWTNDIPICEVVKCLPVTAPENGKIVSSAMEPDREYHFGQAVRFVCNSGYKIEGDEEMHCSDDGFWSKEKPKCVEISCKSPDVINGSPISQKIIYKENERFQYKCNMGYEYSERGDAVCTESGWRPLPSCEEKSCDNPYIPNGDYSPLRIKHRTGDEITYQCRNGFYPATRGNTAKCTSTGWIPAPRCTLKPCDYPDIKHGGLYHENMRRPYFPVAVGKYYSYYCDEHFETPSGSYWDHIHCTQDGWSPAVPCLRKCYFPYLENGYNQNYGRKFVQGKSIDVACHPGYALPKAQTTVTCMENGWSPTPRCIRVKTCSKSSIDIENGFISESQYTYALKEKAKYQCKLGYVTADGETSGSITCGKDGWSAQPTCIKSCDIPVFMNARTKNDFTWFKLNDTLDYECHDGYESNTGSTTGSIVCGYNGWSDLPICYERECELPKIDVHLVPDRKKDQYKVGEVLKFSCKPGFTIVGPNSVQCYHFGLSPDLPICKEQVQSCGPPPELLNGNVKEKTKEEYGHSEVVEYYCNPRFLMKGPNKIQCVDGEWTTLPVCIVEESTCGDIPELEHGWAQLSSPPYYYGDSVEFNCSESFTMIGHRSITCIHGVWTQLPQCVAIDKLKKCKSSNLIILEEHLKNKKEFDHNSNIRYRCRGKEGWIHTVCINGRWDPEVNCSMAQIQLCPPPPQIPNSHNMTTTLNYRDGEKVSVLCQENYLIQEGEEITCKDGRWQSIPLCVEKIPCSQPPQIEHGTINSSRSSQESYAHGTKLSYTCEGGFRISEENETTCYMGKWSSPPQCEGLPCKSPPEISHGVVAHMSDSYQYGEEVTYKCFEGFGIDGPAIAKCLGEKWSHPPSCIKTDCLSLPSFENAIPMGEKKDVYKAGEQVTYTCATYYKMDGASNVTCINSRWTGRPTCRDTSCVNPPTVQNAYIVSRQMSKYPSGERVRYQCRSPYEMFGDEEVMCLNGNWTEPPQCKDSTGKCGPPPPIDNGDITSFPLSVYAPASSVEYQCQNLYQLEGNKRITCRNGQWSEPPKCLHPCVISREIMENYNIALRWTAKQKLYSRTGESVEFVCKRGYRLSSRSHTLRTTCWDGKLEYPTCAKR
notes: Bought (CompTech, A137); also called FL-FH; FLFH

- Kd [6]: 8.09 µM
- Kd [7]: 10.1 µM
- Kd [8]: 8.1 µM
- Kd [9]: 9.2 µM
B5: Recombinant Human Complement Factor H CCPs 1-4 (6x His-tagged), wild type (other)
chain: EKREAEAAGEQKLISEEDLEDCNELPPRRNTEILTGSWSDQTYPEGTQAIYKCRPGYRSLGNVIMVCRKGEWVALNPLRKCQKRPCGHPGDTPFGTFTLTGGNVFEYGVKAVYTCNEGYQLLGEINYRECDTDGWTNDIPICEVVKCLPVTAPENGKIVSSAMEPDREYHFGQAVRFVCNSGYKIEGDEEMHCSDDGFWSKEKPKCVEISCKSPDVINGSPISQKIIYKENERFQYKCNMGYEYSERGDAVCTESGWRPLPSCEHHHHHH
notes: Produced in-house; also called FH1-4; WT FH1-4

- Kd [10]: ~358 µM
- Kd [11]: 9.92 µM
B7: Complement Factor H CCP domains 19-20 (WT FH CCP19-20) (other, human, UniProt P08603 1107-1231, looked up)
chain: GKCGPPPPIDNGDITSFPLSVYAPASSVEYQCQNLYQLEGNKRITCRNGQWSEPPKCLHPCVISREIMENYNIALRWTAKQKLYSRTGESVEFVCKRGYRLSSRSHTLRTTCWDGKLEYPTCAKR
notes: domain: CCP19-20; also called FH19-20
